Laboratory results published in the supplement of paper PMC12042874.
± gives the uncertainty stated by the source.

test: amyloid nucleation score (Sup35N fusion, yeast selection) (log enrichment); library NNK1; higher = more nucleation; inactive = no reads after selection
Summary of the method: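 Nucleation score is defined as the DiMSum log enrichment of output over input reads, with centring on the mode score of non-aggregating sequences. A minimum of 100 input reads was required for each sequence. Reads came from Illumina sequencing of plasmid inserts from psi-negative yeast expressing Sup35N fused to peptides of 20 random codons, induced with 100 μM copper sulfate for 24 hours and grown 7 days at 30°C on medium lacking adenine and uracil.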

Substance | amyloid nucleation score
TALESFRHCLVQSNPGSQVV | -0.217 ± 0.5
TARRKSYDIFMLIMWFVAYY | 2.53 ± 0.12
TASGVDIVRRGCPRLVMLVV | -0.42 ± 0.43
TASNDYLDIDPSMDQSRWCG | 0.518 ± 0.27
TAYWIVYRVKGLLRFFSRLA | 0.011 ± 0.36
TCIARHLQILSVNRCCVRFA | 0.062 ± 0.44
TCIIFIYNSWSSLQPFMSGM | 2.65 ± 0.21
TCIWDKPVSSGL | -0.543 ± 1
TCLWSYSNAFENPR | 1.85 ± 0.31
TCRLKLVFLNVTVKSKFCVL | -0.362 ± 0.76
TCSGA | -0.073 ± 0.39
TCVCQFIWG | -0.086 ± 0.79
TDLMLYYCYSAVPCWDFPAS | 0.073 ± 1
TDRMGIQCGRVSLRSRYIRC | -0.198 ± 0.87
TDVSVKLSVMMH | 1.53 ± 0.16
TEAMTGYVLNNNWYSQLYVF | -0.601 ± 1.1
TECSSSGIALMWVFWRSICT | inactive
TEDDYYSGLRRGKDKEGCSF | -0.084 ± 0.44
TEDPYSGPILKEPVDLCWLE | 0.494 ± 0.74
TEFFGVGLRMKSNGVWWISG | -0.65 ± 1.4
TEITC | 0.837 ± 0.27
TEKAPGTGAKQANSKSSAYA | inactive
TEQGMWHSLAGGR | inactive
TEYISG | -0.026 ± 0.97
TFHWMKDAALSQSSVKRTMA | 0.359 ± 0.59

Substance | amyloid nucleation score
TFLEIKVRD | -0.496 ± 0.19
TFLGLAGSHCLFSFVANSAR | 1.24 ± 0.28
TFLYVWSTSDSYKK | 0.148 ± 0.61
TFPGEWHWERTIVIVPNFFH | 2.03 ± 0.15
TFTCSFTQLRQLFFFVSQGC | 0.214 ± 0.46
TFTVAEQVALE | 0.415 ± 0.47
TFVQF | -0.066 ± 0.51
TFVSLATTDFPPNFSLKLFV | -0.579 ± 0.49
TFVVN | 0.677 ± 0.3
TFYCYLSLGSHEKKADFSNN | 2.21 ± 0.15
TFYLSRDIRLYFSWN | 7.83 ± 0.049
TFYMTSSLST | 0.028 ± 0.67
TGGTNGHKASCEVRFTVTER | 1.08 ± 0.41
TGKDLRAEHENFVARNHFPM | -0.954 ± 1.4
TGNTIAVRLLGKTNWTLIKT | -0.1 ± 0.23
TGSLLTSTWS | -0.474 ± 0.78
TGTDVQGRSRLSDRAWGGYD | -0.098 ± 0.36
TGWEVV | -1.16 ± 0.75
THAVREFWDLGGVNEENYGW | inactive
THWGRVELMFFRSSKHRLT | -0.334 ± 1
TIALRMNRINLDFKYCFNSF | 1.49 ± 0.69
TIAMCISLIGIDSYY | 0.997 ± 0.29
TIASTGVFNM | inactive
TIATLFIFRDLFNFECLNSH | 4.61 ± 0.1
TISGAVRGCGGCSIRWLMSL | -0.663 ± 0.33

Substance | amyloid nucleation score
TIVGWSITIVRLHSFIFFNG | 0.021 ± 0.35
TIWCVD | 1.01 ± 0.28
TKHRELVLPGLVFTTEYCLV | -0.693 ± 1.6
TKIRCDRWTLYIKGITYRAL | 0.86 ± 1.1
TKNSLGHNMLIDWGSCVGGC | 1.23 ± 0.31
TKQFEPFCLRLSVVMLLLQE | 0.034 ± 0.45
TKSTYSSTVTKRTSASCVTL | 0.215 ± 1.1
TKWAVDY | 0.347 ± 0.28
TLCQCKLT | -0.286 ± 0.67
TLESCGW | 0.773 ± 0.22
TLHVEWSSVIAMLFKMSCGL | -0.785 ± 0.88
TLISSGNVHYMWKVTFLNNR | 4.8 ± 0.063
TLKHEQAREGFFAM | -0.053 ± 0.56
TLLELLCEWNTVHKGSP | 0.699 ± 0.3
TLLWFNEFILSGPNFRIGVV | 0.857 ± 0.58
TLNIVHLYME | 4.5 ± 0.065
TLNVFDH | -0.421 ± 0.4
TLPYSKKSLTQFRRGAKICY | 0.588 ± 0.56
TLRVLFFKCLGHIRLLVRGF | -1.64 ± 2.7
TLRVVMKWLAHTWFRHTLMR | -0.083 ± 0.42
TLTDSN | -0.221 ± 0.53
TLTSPWDSYKRFCKNSPLFN | 0.353 ± 1.4
TLVFRYKSDGCQSLRVRLTF | 0.084 ± 0.32
TLVFYRVQGFGIPKSQLTGE | -0.675 ± 1.1
TLVLSLAHPCASGNKPDKSG | 0.863 ± 0.32

Substance | amyloid nucleation score
TLWYLLQITYVLKFKW | 0.301 ± 0.4
TLYIYAMEDSGGFEDGGMCI | 4.18 ± 0.1
TMCCTLDARRLLLSMADFYC | 5.42 ± 0.072
TMISLAFIIYPLNMAPMYME | 1.97 ± 0.45
TMPNSFRWCLNGRVRRDRFC | -0.215 ± 0.97
TMSSFDGPSV | -2.58 ± 1.8
TNVFGILYFEYFLVLDG | 0.208 ± 0.3
TNVMLPNGVGFLAPAVHCES | 1.04 ± 0.51
TNVYESSVSFVMMGS | 0.364 ± 0.26
TPAFTIFSWAIGEDYLFVEM | 0.777 ± 0.9
TPLWKSII | -0.046 ± 0.68
TQPLEIK | -0.165 ± 1.5
TQVIAPVVCMAIDYCANITV | 4.96 ± 0.099
TRGCLRPATSKSGMRPW | 0.056 ± 0.69
TRHFVTVFGCVDNRVEYLNG | 3.22 ± 0.1
TRKLFTFMLDRMYLMVGRRL | -0.294 ± 0.6
TRLGYFNFGSLHVSLWDFML | 0.6 ± 0.28
TRRSRFW | 1.45 ± 0.35
TRRVWLQCLMLSYMAVYISM | 0.044 ± 1.1
TRVKQMEVVSWTRHHWPRCF | -0.623 ± 0.47
TRYGVYQYVVDSLINCHLLE | -0.186 ± 0.52
TSCEGEDFGRKLSREMVLWC | 0.234 ± 0.68
TSCSLYIVMRCVWCIYRGAR | -0.866 ± 2.4
TSCSVSLVWLFLGVRLCVLC | -0.009 ± 0.24
TSDGVMMVR | 0.564 ± 0.34

Substance | amyloid nucleation score
TSFFFHEQHHFKGNKFNFEV | 3.5 ± 0.18
TSFYTGFWCPA | -0.232 ± 0.57
TSIFCGSLLGAKVDSTPVPV | -1.27 ± 2.4
TSLVVYYTSWV | -1.55 ± 2.4
TSPCYWNCI | inactive
TSQTMTCWGSAL | 0.93 ± 0.4
TSRALRREIARLKAYGSMMV | inactive
TSRNW | -0.626 ± 1.1
TSSEFDLLNGQFANGYVLVH | 0.546 ± 0.5
TSSVYLWVSQCYGMNSLLNL | -0.118 ± 0.75
TSSWQVPVNAPEVN | inactive
TSSYGCQHINVMCCRLQGDL | 7.444 ± 0.074
TSTRRHYRVFARAQQEQNSP | 0.869 ± 0.49
TSTVVFFKFYLTKFWISVPT | 1.28 ± 0.36
TSVDG | 0.162 ± 0.28
TSVDVFS | 0.656 ± 0.62
TSWFAFANWVLPSFHYTPVP | 0.43 ± 0.43
TSWFSYRLANCAFHSQGFSR | 0.366 ± 0.38
TSWGNVDGCYNGRTLVLLDF | -0.316 ± 0.67
TSYPSYVDFW | 0.209 ± 0.58
TTCVELYVWRGWRGAGGTGV | -1.41 ± 2.4
TTEYRMLGYSVEHLQDCSDR | -0.527 ± 0.54
TTFSEVERLWGWSVFCNLST | 0.723 ± 0.66
TTINIRYPIYSVVMCWYRLE | 5.513 ± 0.045
TTIRYNVLRAPMLCIIILMN | -0.607 ± 0.58

Substance | amyloid nucleation score
TTSVV | -0.174 ± 1.2
TTVKYLWLYLGFVLGQGVNG | -0.303 ± 0.25
TVAFSVTTVDR | -0.875 ± 2.4
TVAGLT | -0.224 ± 0.71
TVCRSLSRLERHLR | 0.068 ± 0.63
TVFFDYDDIYLVNSVFRSAV | -0.113 ± 0.44
TVKCILYSRFHKGCGWRCER | 3.15 ± 0.14
TVLSSFLLKLRLTIVSCFLR | -0.082 ± 0.65
TVLTTTHFARSVFTLPGKSP | 2.89 ± 0.17
TVLVYRGFTEGCSHFSWPSN | 0.302 ± 0.8
TVQWAEN | 0.292 ± 0.63
TVRLKLINRYPDENRLYTDH | 1.3 ± 0.21
TVTWASGFMGGVDHCSWGQV | 0.043 ± 0.65
TVVNSVGYYAPKLPSACLGN | 0.638 ± 0.31
TWGRVFSLMAPFISRPCFWG | -0.385 ± 0.34
TWMLVEVVNCCLYTHVFYR | 4.27 ± 0.061
TWRNNLKWHMYTYLLPAHIG | -0.42 ± 0.46
TWRQNSRGNRASNCYVRSLS | inactive
TWSACICKRMVLPCDFQNGS | 0.808 ± 0.9
TWSCMFLYYFTLWLCTS | inactive
TWVMFDVWGRVDYER | 0.169 ± 0.4
TYANGGALALAIVAVKC | -0.398 ± 0.64
TYEPLTLMNGVLSVRSGPGI | -0.508 ± 1
TYFWGSLIPEWWLFELYPLE | 1.66 ± 0.32
TYGDGEAE | inactive

Substance | amyloid nucleation score
TYLFF | inactive
TYPYYVTVGGIS | 0.113 ± 0.43
TYSEVRGYLLSRFAEVIDS | inactive
TYWMHCEWFSV | -1.4 ± 2.7
VAACLKNMIESVQSVKYIWR | 0.837 ± 0.93
VAATDWVGNHKS | 1.28 ± 0.55
VAATGNYIIIDNVRLVHAFG | -0.987 ± 0.67
VACNKLRYMCRCQYNMTVWF | -0.262 ± 0.62
VADFSL | 1.44 ± 0.53
VADGYIHARSCRYFKNIIVR | -1 ± 1.2
VAFMDLTMRLDWGNFSNR | 4.34 ± 0.056
VAISQCLNNSNSRNIIVVKW | 1.69 ± 0.34
VARHGEGFNW | 0.446 ± 0.64
VARHISAVSAWGACYRWCFR | 0.706 ± 0.51
VAVQRPIFIVMWPQNLCISA | 3.69 ± 0.13
VAVVLYAQTV | -0.376 ± 0.63
VCCGPSSEEP | 0.384 ± 0.85
VCFVFMS | -0.211 ± 0.41
VCGFWVWLYVGVYSSIPNSM | -0.015 ± 0.31
VCISWLRDTGADC | 2.12 ± 0.23
VCKGSHWFIYLRNGFKSPSV | 1.46 ± 0.65
VCKGVYNMPCSTPNLYDSAG | -0.563 ± 0.79
VCLPSGLFINLGVWYAAQHH | 6.51 ± 0.069
